Measured values as given in patent publication US12077763B2, “RNA-based control of powdery mildew” (Greenlight Biosciences, Inc., priority 2021, dated 2024).

B1: GS3925 (nucleic acid)
sense: UUUGAAAAACACACAACCCCAGAAGAAUACGAUAGCAUAUCAUUGGCCAAGCACCCUCAGUUGCAUGUUGAGGAUGAUUCAUGGCAUAGAGCAACUGGUACUUGUAAGUGUAAUAACUGUUAAUGAAGUAUAUAAUCCCAAAAAAUAGAACCAUAUAACCAGCCGGUAGAAUUGAGUAUACAAUACACAAAAUGUAUACAAGGAUUGCAGAGGGUAGAUAAAACCCGUAUUUGAAGACAGGAGGCUGUGUAAGCUCCCAGCGAUCCCUAGGGCUUUUUGAAUACAUACGCAUAAUUGGAUAUAGAGACACACUGCCAAACUCUAAGAGCCUUAAUGGUAUGAAACCAA
antisense: UUGGUUUCAUACCAUUAAGGCUCUUAGAGUUUGGCAGUGUGUCUCUAUAUCCAAUUAUGCGUAUGUAUUCAAAAAGCCCUAGGGAUCGCUGGGAGCUUACACAGCCUCCUGUCUUCAAAUACGGGUUUUAUCUACCCUCUGCAAUCCUUGUAUACAUUUUGUGUAUUGUAUACUCAAUUCUACCGGCUGGUUAUAUGGUUCUAUUUUUUGGGAUUAUAUACUUCAUUAACAGUUAUUACACUUACAAGUACCAGUUGCUCUAUGCCAUGAAUCAUCCUCAACAUGCAACUGAGGGUGCUUGGCCAAUGAUAUGCUAUCGUAUUCUUCUGGGGUUGUGUGUUUUUCAAA
B2: GS3920 (nucleic acid)
sense: UCAACGUAAAUUUUAUAAGCAAGGCUCUGGUAAAGUGGAACCUUACUUUUUAAUCCUCAACAAGGAAGGAGAGUUCAUUGAUGUAGUCGUUGAAGGGCUGAUGAAUAACUUCAUAAGAUGUCAACAAACAAGAAAAAUCUCUACAGAAUUAAUUUCAGAUGCACCUAAUCAACCGGUACCAUCUCAAAUAUCUGGAUAUCAAUGUGGUAAAUUUUUUUUUAGCAAUGAGGAACUUGAGAAUACUGCAAAUGUGGCUAGAGAUAUCAUGCUUCAGAGAAGUCAAAAUAAAAUUCCCACUAAGUAUAA
antisense: UUAUACUUAGUGGGAAUUUUAUUUUGACUUCUCUGAAGCAUGAUAUCUCUAGCCACAUUUGCAGUAUUCUCAAGUUCCUCAUUGCUAAAAAAAAAUUUACCACAUUGAUAUCCAGAUAUUUGAGAUGGUACCGGUUGAUUAGGUGCAUCUGAAAUUAAUUCUGUAGAGAUUUUUCUUGUUUGUUGACAUCUUAUGAAGUUAUUCAUCAGCCCUUCAACGACUACAUCAAUGAACUCUCCUUCCUUGUUGAGGAUUAAAAAGUAAGGUUCCACUUUACCAGAGCCUUGCUUAUAAAAUUUACGUUGA
B3: GS1816: dsRNA trigger SEQ ID NO 174; gene target Plasma membrane ATPase (nucleic acid)
DNA: CAACCACTGAGACTTGTTCAATACATGATACACAATAGCAATCACTATCGTGACAGCAATAGAATAGCCCCAGACAACAATAATAGTGACAATGGAGGTTCTTCCGTCAGTAGATAAAAGGGAGTTTAATGTGGCAGGATCTGAAGGCTCACCAGCACCGCCAGTTAACCAACCAAAGAGACAGAAGAGAGTTGCAAGTACATCAACACCGAATATAGCAGCAACGAGTGCAAATGCAGGATAAGTCTCATCTCCTCTGGTGACAAAGATGAGCCAGTTTTCGGTGAGAGAAATTTGAAGGAATAACATTCCCTGGATAGATCCAAAGTTATCAATCATGCCACCATTAGGTAAGAAAAGCGAGCCACGTAATACCCATGTTCCAAGAGCAAGCAATATGCCAAGAACAACAGAGATAATCCAGATTTTAGGTAATTGCCACTCAACAGGTCGAATCTCAAAGTGAGCGTTGTCGTATGCAACTGCAATTGTGGCTAAATCGGCAAAAAGTGCAAGGAAGACAATTAAATCAACCCGGACAGTTTCGTTAATAATGATCATAGAGGTTACAAGATAGATTTCTAAGTGTAAACATAA
B4: GS3927 (nucleic acid)
sense: CUGAAUCAGAUGAUGGGGGUAAUGAACGUAUGAUAAAUAGUAAGAAACCGCGAAGUACAUGCUCGAAGACCCUAAGGGAAAAAGAUUUGAAAGAUGAUAAAGAAAAGUCCAGAUCUGAUGCUGUAGCUAAAAGAAAUGGUCGUACAGAGCGGAGAAGAACUGAAGAUCAAGAAACACAGAAGGAAUUGUCAAUUGGUACUAAAAAUACAAUGUGCAAUAGCACAGACUCUUCUAAAGUCUCUACAACGAUUGAAUCUCUUGAGUCUCCGACAUUAUCAAAUGGUAGAGUUUCAGACAAUUCAUCUAACAACCAAUUUCCAAUACCUUUAAAAAAAAGCUACCGUAAUUCAAAUUCUAGGAAAGGGAAAUUAGCCAAAAAUAAUUUCACAAGGGAAU
antisense: AUUCCCUUGUGAAAUUAUUUUUGGCUAAUUUCCCUUUCCUAGAAUUUGAAUUACGGUAGCUUUUUUUUAAAGGUAUUGGAAAUUGGUUGUUAGAUGAAUUGUCUGAAACUCUACCAUUUGAUAAUGUCGGAGACUCAAGAGAUUCAAUCGUUGUAGAGACUUUAGAAGAGUCUGUGCUAUUGCACAUUGUAUUUUUAGUACCAAUUGACAAUUCCUUCUGUGUUUCUUGAUCUUCAGUUCUUCUCCGCUCUGUACGACCAUUUCUUUUAGCUACAGCAUCAGAUCUGGACUUUUCUUUAUCAUCUUUCAAAUCUUUUUCCCUUAGGGUCUUCGAGCAUGUACUUCGCGGUUUCUUACUAUUUAUCAUACGUUCAUUACCCCCAUCAUCUGAUUCAG
B5: GS3921 (nucleic acid)
sense: UUCGCGGUGUCUUCCUUUCCAGAGCCUUUAGUCUUUGAAGGAUUUUCUUCUUCAUCCCCAUCUUCACCCUCCGCUUCUGCAUUGACUUCGUCGGCCUUUUUUGCUUUUUUUUCUUCCCCAGAUUUGCCUUUCGUUGUUAGAGCUCCUAGGCCACUAGCGAGAGAAUUUGAACCAUUACCACCGCCAACAAGAACUCCUGCUUUACCUCCUAUGGUCACCUCUUGAAUACUCUGACUUUCAUUUUCCGCAGCAUUGGCUUGCUUUUUGGAAGAUGAGCUAGAGUCAUGUGAUUUUUCUGAAUUCGAUGCCUUAUUUUUCUGAUCUUUU
antisense: AAAAGAUCAGAAAAAUAAGGCAUCGAAUUCAGAAAAAUCACAUGACUCUAGCUCAUCUUCCAAAAAGCAAGCCAAUGCUGCGGAAAAUGAAAGUCAGAGUAUUCAAGAGGUGACCAUAGGAGGUAAAGCAGGAGUUCUUGUUGGCGGUGGUAAUGGUUCAAAUUCUCUCGCUAGUGGCCUAGGAGCUCUAACAACGAAAGGCAAAUCUGGGGAAGAAAAAAAAGCAAAAAAGGCCGACGAAGUCAAUGCAGAAGCGGAGGGUGAAGAUGGGGAUGAAGAAGAAAAUCCUUCAAAGACUAAAGGCUCUGGAAAGGAAGACACCGCGAA
B6: GS3928 (nucleic acid)
sense: UUGAAGUGGUUAAAAAACAUGUUGAGGAAACAGAAUGGGAAGAAGAACCUUCCAAGAAUGGAAGACUUGAUAUUGAUAUAAUAACCGCGGAAGCAAUGACACUUGCUCAUCAAAUUGCAAGUGGUGAGAAGACUAAAUAUGAUCUCAUCGAUGAAGGUUGGAAUAAAAAUUCAUUCAAGGAUCGCGAUGGCCUUCCUGAUUGGUUUCUGGAUGAUGAGAGUAAACAUGAUAAACCUCAUAGACCUAUCAGUGCUGCCGCUGCAAAUGCUAUAAAAGAAAAGCUGCGAGCCCUGAAUGCUCGACCAAUCAAAAAAGUACGUGAGGCUAAGAGUCGGAAAAAAUUCAAAGCUGCCCAACGACUUGAAAAACUCCGAAAAAAAU
antisense: AUUUUUUUCGGAGUUUUUCAAGUCGUUGGGCAGCUUUGAAUUUUUUCCGACUCUUAGCCUCACGUACUUUUUUGAUUGGUCGAGCAUUCAGGGCUCGCAGCUUUUCUUUUAUAGCAUUUGCAGCGGCAGCACUGAUAGGUCUAUGAGGUUUAUCAUGUUUACUCUCAUCAUCCAGAAACCAAUCAGGAAGGCCAUCGCGAUCCUUGAAUGAAUUUUUAUUCCAACCUUCAUCGAUGAGAUCAUAUUUAGUCUUCUCACCACUUGCAAUUUGAUGAGCAAGUGUCAUUGCUUCCGCGGUUAUUAUAUCAAUAUCAAGUCUUCCAUUCUUGGAAGGUUCUUCUUCCCAUUCUGUUUCCUCAACAUGUUUUUUAACCACUUCAA
B7: GS3929 (nucleic acid)
sense: AUUGUUGAUAAGUUCACUGGAAAUCUCCGUUAUAGGAUCUAUUCCUUCAUUUUGUUUCCGGAGUUUUUCUUCUUGUCGAGCACUCAUUUUGGUAGAGAAUGCCCAACAUGAAAGGCCCAAUUCGCGACAUACUAUGCACACAUCUAGACGAGGCGCAGUUUUGUCUUUCGUUAUCGCAAUUCCAAUGCAACGACGACAUUGUAAGACAAAAUUCUCAUGACCAAUUUUAGUAACCAAGUGAUCUCUGUUACUUCGAGGACCAAGACAAUUUUUGUGGAUUGAAGUUGAGCAUCCUUGACAGUAAAUAAGUUGGCUUGGGCCCUUGUUCGAAUUUCUCUCAUUUCCAAAGCAAACAUCACAAAAUUUAUUAUGAAAACUUCGAAAUAAAUUUU
antisense: AAAAUUUAUUUCGAAGUUUUCAUAAUAAAUUUUGUGAUGUUUGCUUUGGAAAUGAGAGAAAUUCGAACAAGGGCCCAAGCCAACUUAUUUACUGUCAAGGAUGCUCAACUUCAAUCCACAAAAAUUGUCUUGGUCCUCGAAGUAACAGAGAUCACUUGGUUACUAAAAUUGGUCAUGAGAAUUUUGUCUUACAAUGUCGUCGUUGCAUUGGAAUUGCGAUAACGAAAGACAAAACUGCGCCUCGUCUAGAUGUGUGCAUAGUAUGUCGCGAAUUGGGCCUUUCAUGUUGGGCAUUCUCUACCAAAAUGAGUGCUCGACAAGAAGAAAAACUCCGGAAACAAAAUGAAGGAAUAGAUCCUAUAACGGAGAUUUCCAGUGAACUUAUCAACAAU
B8: GS3922 (nucleic acid)
sense: CCCGAAUGAAUGCUAUCAACAUGGGAUAGUAGUUCACGUUCACUCCGAAAUUUUAUAUUACAAAACAUACACUCUGCAUGUUCUUUUCGAAUAUGAGCCUGUAACUUUGAAUAACUUGUGAAGCCUAGAUUUAAUGGCGUACCAUCUGAAUUAAAAGAUCCUGUCAAGCAACAUUCAUUACAGAAAUAUCGAGCACUGCCAUGAGCUCGCUCUUGGUGUCGACGAAGGCUGGCGGAACUAUCGAAACCUGAGUUGCAACUUUCGCCAGUGACAGGGUCAACAUGGACACAGGGAUACGGCAUAAGCUGAAGAUGUUCAGAGCGAAUAUGACGCUGGAGAGUUUGAUGUUUUCGGAAAUUUUGGCUACAGGGUGGGUAAUUUGUACAUUUGAAU
antisense: AUUCAAAUGUACAAAUUACCCACCCUGUAGCCAAAAUUUCCGAAAACAUCAAACUCUCCAGCGUCAUAUUCGCUCUGAACAUCUUCAGCUUAUGCCGUAUCCCUGUGUCCAUGUUGACCCUGUCACUGGCGAAAGUUGCAACUCAGGUUUCGAUAGUUCCGCCAGCCUUCGUCGACACCAAGAGCGAGCUCAUGGCAGUGCUCGAUAUUUCUGUAAUGAAUGUUGCUUGACAGGAUCUUUUAAUUCAGAUGGUACGCCAUUAAAUCUAGGCUUCACAAGUUAUUCAAAGUUACAGGCUCAUAUUCGAAAAGAACAUGCAGAGUGUAUGUUUUGUAAUAUAAAAUUUCGGAGUGAACGUGAACUACUAUCCCAUGUUGAUAGCAUUCAUUCGGG

System: E. necator
Assay: Leaf disc assay, dry inoculum (settling tower), decrease in disease severity / hyphal growth (Example 2)
Conditions: decrease in disease severity (hyphal growth) relative to untreated control, value ± SE; for % decrease =/− SE TP1: time point 1 (untreated control hyphal growth ≥50%); for % decrease =/− SE TP2: time point 2

| Molecule | % decrease =/− SE TP1 | % decrease =/− SE TP2 |
| --- | --- | --- |
| B1 | 18 ± 4% | 3 ± 6% |
| B2 | 14 ± 11% | 12 ± 12% |
| B3 | 61 ± 2% | 50 ± 7% |
| B4 | 7 ± 3% | – |
| B5 | 3 ± 8% | 8 ± 8% |
| B6 | 15 ± 6% | 9 ± 7% |
| B7 | – | 19 ± 7% |
| B8 | – | 27 ± 12% |
